Source: the DeepSol protein solubility set

Assay: soluble on expression in E. coli; label from the status in PepcDB or PDB records

In the case of “MSSPYSPREWLQLNMQQQGLLQPQTSVGQLIACLGYVQIDSINVVERAHHHVLHSRMPQYQPQMLDTALAQGEIFEYWSHAAAYLPIADYRFSLQRKQQLQNGGKHWFEPDDNAMQEVRARIRAEGPLKASDFEHTEGKNGAWWDWKPAKKALEQLFMRGELMVVRREKFQKCYDLTERVLPSHINTLAPSDSEFARHLISRYLDAHAFGSAAQIAYLRKGIKANVNQQLAAMQSQGELASFKAEGQWYFYRPELQITAAMPNRVWLLNPFDNLLIQRQRLKQWFDFDYQIEVYVPAEKRQYGYYSLAILWRDRFVGRVDVKADRQSGLLLLQQLTLEEGFDGMDEGFCSAFEATVSEYARFNICSRWKLVKANHKAFKLEHHHHHH”, the “soluble on expression in E. coli” value was “not soluble”.

With “MSLSQSALSELLEAFRAGDGVDLICESVRVALQDLIQLEASERIGAAPYERTDARVSERNGHRPRVLTTKAGDVELRIPKLRKGSFFPVILEPRRRIDQALYAVVMEAYVHGVSTRSVDDLVEAMGVDAGISKSEVSRICAGLDEQVGAFRTRALDHTEFPYVYLDATYLNVRNTTGQVTSMAVVVATGIAADGSREVLGLDVGDSEDETFWRGFLTALKQRGLHGVQLVISDQHAGLVKALRRSFQGAGHQRCRVHFARNLLAHVPKSHGDMVAAVFRTIFAQPDAAAVSHAWDEVRDQLAKSFPKIGPLMDEAKAEVTAFTVFPRAHWQKIWSTNPLERSTRRSSDAPGWSGSEGHHHHHH” the “soluble on expression in E. coli” value was “soluble”.

In the case of “MENMIVIMAGGRSSRMGAEKPILKVNGKPMILRVYEESTKVGETLVAISKNTPKTRELCIKEGIPLIETPGEGYVEDVRYLLKELGSFVSVSADLPFVKACDIAEVKKAFDGKTSLTGVLPLSKVPTDLRPVVYKGYVIVGLNGVGFEGEKFYELSNPLLALNVNTPEELKLANRIAKLIG”, the “soluble on expression in E. coli” value was “soluble”.

For “MGSSHHHHHHGKTIFVIVPTNEEQVAFLEALAKQDELNFDWQNPPTEPGQPVVILIPSDMVEWFLEMLKAKGIPFTVYVEEGGSENLYFQGGGGGGQRHAHDSAVGDKALTHKGRLRLSQNASGSAAGRCGSDDGNDSDQGGVDDDNGGAVGRRRRGAGGVLRRRRPQERGGNARRGGSDGDENSYDGDDAGGIPETDANGVKLTRLQRKKLAKEREREERRQAQEAALEAQRQRMDVNELRDAEAALREEELKAAEEAALQQLRRDKKKAEDEEYAKWVSHIGVEERGELGDEERERQTRMQSFLLDRAAQVQARARRSAAGAKSSPSEEECIHVLILQTAARDLKVSVEELVSTIEQLSQVDKVHGVFDDRGKYVFIAPEQFPLLAQFIRLRGRVSVQEFTRECNRVVMQS”, the “soluble on expression in E. coli” value was “soluble”.

In the case of “SRMQRDLSDSTVLRNLGVAFSYSLIAYHSVAKGNDKLQINKSALQKDLSENWEVLAEAIQTVMRRYNEPNAYEQLKELTRGQMIDAENLKKFIKTLSIPEEAKAELMKLTPETYTGLATQLVKAFS”, the “soluble on expression in E. coli” value was “not soluble”.

In the case of “MSNWKPNIPYNDLPPLPPKQDIESKTILKRCIAARASLARLKQAAELIPNQAMLINTLPVMEARASSEIENIVTTTDKLFQSLQMDTERQDPATKEALQYRTALFAGYESLTSRPLCTQTAIMVCNAIKHPYEMAIRKTGGTALKGGNSGNVVYTPPEGEETIRGKLANWERFIHESGDLDPLIIMAAAHYQFEAIHPFTDGNGRTGRILNSLLLIEKGLLDLPILYLSRYIIENRADYYRLLLGVTERQDWESWIIYILDGVADTADWTVSKIDAIRRLFEQTRQHIRTHAQGIYTHELVNLLFEQPYTRIANLEAAGIAKRQTASKYLKELSDIGVLQEIVIGRDKLFIHPRLMELLRGEGNSFTSFQSLVKA”, the “soluble on expression in E. coli” value was “not soluble”.

For “VSQLFEEKAKAVNELPTKPSTDELLELYALYKQATVGDNDKEKPGIFNMKDRYKWEAWENLKGKSQEDAEKEYIALVDQLIAKYSS”, the “soluble on expression in E. coli” value was “soluble”.

For “QSTSNKTLDTLIVTGTRISDRTAAESSSPIDIISQESLEATGTTELATALSRMVPSLNFPRPAVSDGNDAVRPAQLRGLSPDQVLVLVNGKRYHTTALVNLNEIQGRGSAPADLNTIPIAAIERIEVLRDGASAQYGSDAIAGVINIVLKGAGKGGSITGHYGEYKVKDGKQYELSGDTGLSFAGTGKVHFAAQGGHEDQTNRAVPYNDGIIRQRYGDPKINQGAFSYNGSYSPTEGVTFYSFGMVSRRKVLSNGFYRWADDARNRPEIYPEGFLPQIYNVANDTSWVSGMKASTAWGLNIDLSYNYGNNQLTFDVRNSLNNSLGLSSPTAFYAGGLEITQHVLNADFNKSVDWGHLAYPLNLAFGVEWRGEIFNEYQGEEASYINGGVRSSAGTLLPGAQVFSGFKPSDSGGFDRNSHSMYIDLEGNLTEKFSAGVAGRYEHYSDFSNTR”, the “soluble on expression in E. coli” value was “not soluble”.

In the case of “MATAETSVLIGYLSDYGYSDRLSQAIGRGLVKTGVAVEMVDLRAVDPQELIEAVSSARGIVLGTPPSQPSEAVATALSTIFAAAHNKQAIGLFDSYGGDDEPIDALLAQFRNLGLHTAFPPIRVKDQPTEAIYQQCEESGTDLGQWLTRADAIQTMKSLEHHHHHH”, the “soluble on expression in E. coli” value was “not soluble”.

With “MASIADAIGKILTAHSPYPAVVVDRHWNMVDANDAVAVLTEGCAAELLEPPVNVLRLSLHPDGMAPRILDLAQWRGHLLHRLRHQIAVTGDDGLRDLLRELEGYPGGTVGSAELPGSLVVPLRIRHHETVLAFLSTTTMFGTPLDVTVAELAIESFFPADAVTAATLRSSVSSD” the “soluble on expression in E. coli” value was “soluble”.

In the case of “MADVLTELPGVGPSTADKLIEGGYLDFMKIATATIGELTDIEGISEKAAAKMIMAARDLCDLGFKSGVELLKQRQSVWRLSTGSTELDTVLAGGIESQSVTEFAGMFGSGKTQIMHQTCVNLQMREKIFADLEGVVEEELEAPKAVYIDTEGTFRPERVVQMAEGAGIDGQTVLDNTFVARAYNSDMQMLFAEKIEDLIKGGNNIKLVIIDSLTSTFRNEFTGRGKLAERQQKLGRHMATLNKLADLYNCIVLVTNQVAAKPDAYFGVAEQAIGGHVVGHAATFRFFLRKSKGDKRVAKLYDSPHLPDSEAVFRITEKGIQD”, the “soluble on expression in E. coli” value was “soluble”.

In the case of “MTEILQTLKEYIPISLEEMSGIKLMNRTDTKYVTSYQILKEILLAAGHDYRVQEVNGEYNIAYHTIYLDTADRDMYLTHQNGRVVREKIRIRTYVDSDLTFLEVKNKNNKGRTDKKRIRIGSIDTIKEDGGEAFLRQHAWYEQSQLLPLLENSFRRITLVNKHKTERLTIDTGVTFCCLQSGKISSLDNIVIIELKRDGHNSSPIKEILRKLHIQSSGFSKYCIGSALTVSHLKCNRLKPKLRMLNKMGVY”, the “soluble on expression in E. coli” value was “not soluble”.

In the case of “MSLGLIRAQPKSGYYVSNHAIKQLASKTTPVPEQASTVVSISDMVFSILSSIKDPETVPLGSAFPWPDLFPLARLSRSLAHATRDMGPAAIVESLPPGNHDLRRQIARRYLMQGVEADVDNILITNGAFEALNLCLEAVTQPGDLVAIESPTFHGCLQALERLQLKAVEIPVDPVLGMDLDYLESVLEKCPVRACWSMTSFQNPMGVSMPAERKQVLVELLTRYRIPLIEDDVYGELYFGMQEHRPAKAYDSEGYVMHCSSFSKTLAPGYRIGWALLPKRFERKVERLKVITSLSTSTIAQAAIADFLQHGGYDRHLRRLRTKFELQQHQYLHLIARYFPAETQVTRPHGGYFLWVDLPERVDALVLFQRALEQGVSVAPGPIFSARHQCCNCIRINYSKPVDAEVEQAFKTLGRLMSSIEAEGHHHHHH”, the “soluble on expression in E. coli” value was “soluble”.

With “MAFEGLSERLQATMQKMRGKGKLTEADIKIMMREVRLALLEADVNFKVVKEFIKTVSERALGSDVMQSLTPGQQVIKIVQDELTQLMGGENTSINMSNKPPTVVMMVGLQGAGKTTTAGKLALLMRKKYNKKPMLVAADIYRPAAINQLQTVGKQIDIPVYSEGDQVKPQQIVTNALKHAKEEHLDFVIIDTAGRLHIDEALMNELKEVKDIAKPNEIMLVVDSMTGQDAVNVAESFDDQLDVTGVTLTKLDGDTRGGAALSIRSVTQKPIKFVGMSEKLDGLELFHPERMASRILGMGDVLSLIEKAQQDVDQEKAKDLEKKMRESSFTLDDFLEQLDQVKNLGPLDDIMKMIPGMNKMKGLDKLNMSEKQIDHIKAIIQSMTPAERNNPDTLNVSRKKRIAKGSGRSLQEVNRLMKQFNDMKKMMKQFTGGGKGKKGKRNQMQNMLKGMNLPF” the “soluble on expression in E. coli” value was “not soluble”.

For “MSDADPKVPHRGHELLDVLARLGGSARNAQIAQVMDVSEETVRRLVKTLAKQGKVERVHGGTYLRGSQDAPMYSGALEQQPKEKTRIAKGVLELIRDGMTLFINVGSTTTYVAEQLRERRDLTIVTNSISTVASLADHNGSRVFLAGGEVSRSERGCFGRATEDFARRFAYDVLVIGADAMSPELGVLAANPREAELTRALLGNATRVIVAADYRKFSAIAPCIAAPLEAITDLVTDAAPPDALQDALDRCGVATHLAAKSGRITTRTPPPQDVGHSNTNRKTLSFPTEVSLEHHHHHH”, the “soluble on expression in E. coli” value was “soluble”.

In the case of “GPGSMERNPAHPLDATAKLPVRQKEVTFDSLCVNADDRFVEGLSGKSEERRGFRPNTKLYAANAARTRGRTGGASDLGFTESLPTLNEVIGEEKISHLGRLRARPPRAAEGSTDVIPVARVKAKSSLTRPVHATPTSIPSTRSLWVEGSSVLNQDVGHASAALTHLSDCVAQERRLKVEWEAARLAKIRALRAVVKVFMQSFIDRGSFARSTSVGGKVMSDTLAVARCSVITNTLVGTVQNFMRAFRSRRLCAARGPVSGLQLFPNIAGQESDRFTLSLYSSAPGGAESSVNESYVSPNHSVSDYLEEEEVSRIKQLYFDYFDCEAVSISSAVASGSDMSIFAYSAASSISRPSSPVSRGGDHSSFSHCASTTM”, the “soluble on expression in E. coli” value was “not soluble”.

For “SVTIDHTTENAAPAQAPVSDRAWALFRALDGKGLVPDGYVEGWKKTFEEDFSPRRGAELVARAWTPRRGAELVARAWTDPEFRQLLLTDGTAAVAQYGYLGPQGEYIVAVEDTPTLKNVIVCSLCSCTAWPILGLPPTWYKSFEYRARVVREPRKVLSEMGTEIASDIEIRVYDTTAETRYMVLPQRPAGTEGWSQEQLQEIVTKDCLIGVAIPQVPTV”, the “soluble on expression in E. coli” value was “soluble”.

In the case of “MRNIYDLANELERGIRALPEYKNLVEKKEAIATDAEASALFKEFTDFQEDFYAKMQAGTMPTAEEQAAVQELGQKVEANALLKEYLTAQQSLSVYLNDIERIIFKPLQELNN”, the “soluble on expression in E. coli” value was “not soluble”.

In the case of “MGSDKIHHHHHHMTTHSHTLTIAGQPLHYTDQGQGNTLVFIHGLLGNKVQWQSQIDALKANYRCIAIDLWGHGDSQTMPENTANLKDIASQLLSMLTALNINSCSLISLGTGCAIASEMALLSPKNINALVMINGFIGFEPEVNCVKYQGMLDEVQLNNGISTALAKQIATLFFNTQAQKTAVKTDTVTNAVTNEIESASVDSQISDKAMAALAQQLTEINAVQLSALVKFVPMAIYKRDTLEDVERFCLPSLILASNNNKLRTPLEAYLMQDTLDGSQLTQIPNAGHWVHLEQAEQLKQLISQFLQQH”, the “soluble on expression in E. coli” value was “not soluble”.

In the case of “RMLTDRRVHDADFLTDELGLTSLGLVNHQHHHSMKKQALNLNGGYHTHNDRTSSQAMKRV”, the “soluble on expression in E. coli” value was “not soluble”.

For “GPVDPVKTFSEVLAAVEDRTISKELLDEKCRKILAFKYALIICKGISKELPAEEVVRQVNSREAERMSEDLWQASITILKNKKHFLPLSEGNRIACVNLDGAASNTFTQELGLTSKDCYSYAKGSNSTRTQELLSKLKGYDAVIVTVRHTQPDWAGTFLHRLTEQNHTAIVFFTSPYVADRIPAAMDKARAIVVAYENVKEAARMAAYKIRDRVVVSSGGGIPVVQEEEDTDPTANMMPPTELSSGLIPMPA”, the “soluble on expression in E. coli” value was “not soluble”.

In the case of “MLTIAHRLQRESISSGRHSSRISAVFSSPIRASSESRSQHAASSSSSIVSRPESVDEDEEEDGVWPSVTSGGVLVGCACSNSSLTRNESIVVSEGSQALYIASAATAMNGDSVRRRGGDAPDDDEAAGAAPVPAEECNLDALFERFFGDGGADAIRFEPMLPRVYELTLPSIDSRLNFINVGRRHAAFLRHVYGGCDRCEHAAVLNEKMKLFTAVITKLLDVNGILERRETTD”, the “soluble on expression in E. coli” value was “not soluble”.
